Assay results: paper PMC10897913 (iScience, 2024)

Target: T1, GST-DUB3 (human, UniProt Q6R6M4 1-530)
T1 sequence (looked up): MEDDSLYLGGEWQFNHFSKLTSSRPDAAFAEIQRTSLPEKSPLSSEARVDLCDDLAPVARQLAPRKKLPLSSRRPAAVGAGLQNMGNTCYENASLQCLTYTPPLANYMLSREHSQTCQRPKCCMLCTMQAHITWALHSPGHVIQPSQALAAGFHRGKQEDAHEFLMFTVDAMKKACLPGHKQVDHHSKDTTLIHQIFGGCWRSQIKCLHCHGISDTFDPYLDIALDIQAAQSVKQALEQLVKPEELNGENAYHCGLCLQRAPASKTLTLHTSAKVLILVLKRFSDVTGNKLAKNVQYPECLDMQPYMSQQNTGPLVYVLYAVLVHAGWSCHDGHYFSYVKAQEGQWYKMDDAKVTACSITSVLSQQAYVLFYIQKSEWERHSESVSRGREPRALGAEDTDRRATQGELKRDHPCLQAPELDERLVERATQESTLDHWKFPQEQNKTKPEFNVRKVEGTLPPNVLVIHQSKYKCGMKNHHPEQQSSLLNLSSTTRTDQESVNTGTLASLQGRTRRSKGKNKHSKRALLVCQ
Experiment: pull-down

binding result: binds
B1: MAGEA3-His (natural protein, human, UniProt P43357 1-314, looked up)
chain: MPLEQRSQHCKPEEGLEARGEALGLVGAQAPATEEQEAASSSSTLVEVTLGEVPAAESPDPPQSPQGASSLPTTMNYPLWSQSYEDSSNQEEEGPSTFPDLESEFQAALSRKVAELVHFLLLKYRAREPVTKAEMLGSVVGNWQYFFPVIFSKASSSLQLVFGIELMEVDPIGHLYIFATCLGLSYDGLLGDNQIMPKAGLLIIVLAIIAREGDCAPEEKIWEELSVLEVFEGREDSILGDPKKLLTQHFVQENYLEYRQVPGSDPACYEFLWGPRALVETSYVKVLHHMVKISGGPHISYPPLHEWVLREGEE
